This series deals with MalFGK2 (Escherichia coli, UniProt P02916+P68183+P68187). The class given is biochemical.

Data on 2 compounds can be found in publication PMC4715599 (Molecular microbiology, 2015).

With `OC[C@H]1O[C@H](O[C@H]2[C@H](O)[C@@H](O)C(O)O[C@@H]2CO)[C@H](O)[C@@H](O)[C@@H]1O` (mixture of isomers) [maltose, reference compound], the “stimulation of MBP-dependent ATPase activity by maltose” value (transporter reconstituted in nanodiscs) is recorded as “about 10 fold”.

On to “MalFGK2: E. coli maltose ABC transporter complex: MalF, MalG and MalK dimer”, for which the “ATPase activity in the absence of MBP” value (MalFGK2 in nanodiscs) was “did not exhibit any detectable ATPase activity”. Further, the “basal ATPase activity” value (in detergent, absence of MBP) is on record as ~ 122 nmol/min/mg.
